Assay results reported in patent US6576419.
pKd: −log10 of the molar value.

Molecular target: anti-hCG monoclonal antibody from Organon Teknika, Boxtel, the Netherlands
Assay: competition: hCG displaces FpepT from anti-hCG Mab, fluorescence at 590 nm, fit to exchange model (K1)

human chorionic gonadotrophin (hCG) (from UniProt P01215 25-116; P0DN86 21-165) (ligand)
pKd: 9.31
